Experiment [1] relates to thrombin generated via the Intrinsic and Common pathways. In words: Thrombin Generation Assay (TGA) triggered by ellagic acid. It is filed as biochemical, human. Conditions: Intrinsic Pathway Activation with Ellagic Acid. An excerpt:
(§1) This Example describes the inhibitory activity of selected antibodies, as determined by four functional plasma assays: 1) Activated Partial Thromboplastin Time (aPTT), 2) Prothrombin Time (PT), 3) Thrombin Generation Assay (TGA) triggered by ellagic acid and 4) TGA triggered by Tissue Factor. The aPTT test evaluates all clotting factors of the Intrinsic and Common pathways of the coagulation cascade by measuring time for a clot to form after the addition of calcium and ellagic acid, whereas the PT test evaluates all clotting factors of the Extrinsic and Common pathways of the coagulation cascade after the addition of calcium and Tissue Factor. The TGA triggered by ellagic acid measures the rate and amount of thrombin generated via the Intrinsic and Common pathways whereas TGA triggered by Tissue Factor measures the rate and amount of thrombin generated via the Extrinsic and Common pathways.
The thrombin generation profile was determined in a Thermo Scientific Hemker Thrombinoscope in the following manner: A total of 55 ul of pooled normal human plasma was added to a well of a microplate at 37° C. Then 5 ul of a 2× serially diluted test article (antibody or small molecule inhibitor) in PBS was added to the well of the microplate and allowed to incubate for 30 min. 15 ul of APPT-XL Ellagic Acid (Thermo Scientific) was diluted in MP reagent then added to the well and allowed to incubate for 45 min. Then 15 ul of Fluo Flu Cal substrate (Diagnostica Stago) was added immediately before a continuous 90 min reading of the microplate. The measured real-time thrombin concentration values were plotted against time to yield a thrombogram profile for each concentration of the test article used.

Experiment [2] deals with Extrinsic and Common pathways of the coagulation cascade. In words: Prothrombin Time (PT) in pooled normal human plasma. It counts as biochemical. Particulars: for C2xt of Prothrombin Time (PT) - Extrinsic Pathway: dash cells, dose up to 4 uM; for effect on plasma PT (in words): dose response curves, pooled normal human plasma.
Source text: as §1
(§2) The PT was determined on Diagnostica Stago STart4 Hemostasis Analyzer in the following manner. A total of 50 ul of pooled normal human plasma was added to a cuvette at 37° C. After 1 min, 5 ul of a 2× serially diluted test article (antibody or small molecule inhibitor) in PBS was added to the cuvette and allowed to incubate for 5 min. Then 100 ul of Tissue Factor (TriniCLOT PT Excel, Diagnostica Stago) was added to start the reaction. The measured clot time for the test article concentration was normalized to baseline (no drug) plasma clot time and plotted against log molar concentration of the test article. The results were analyzed using nonlinear regression (4-parameter logistics) with Prism 5 software (GraphPad) to obtain doubling time concentration.

Experiment [3] concerns Intrinsic and Common pathways of the coagulation cascade. In words: Activated Partial Thromboplastin Time (aPTT) in pooled normal human plasma. Particulars: dose response curves, pooled normal human plasma. It counts as biochemical.
Source text: as §1
as §2, with “aPTT” for “PT”, “manner:” for “manner.”, “50” for “100”, “APPT-XL Ellagic Acid (Thermo Scientific) was added and allowed to incubate for 300 seconds before 50 ul of 20 mM calcium chloride (Thermo Scientific)” for “Tissue Factor (TriniCLOT PT Excel, Diagnostica Stago)”

Another experiment concerns the target T1, human FXII (Homo sapiens, UniProt P00748).
T1 construct: plasma purified human FXII and FXIIa proteins (Enzyme Research Laboratories); purchased Enzyme Research Laboratories 1212; host or cells: human plasma (said of the same vendor's proteins used as immunogen)
T1 sequence (P00748 20-615): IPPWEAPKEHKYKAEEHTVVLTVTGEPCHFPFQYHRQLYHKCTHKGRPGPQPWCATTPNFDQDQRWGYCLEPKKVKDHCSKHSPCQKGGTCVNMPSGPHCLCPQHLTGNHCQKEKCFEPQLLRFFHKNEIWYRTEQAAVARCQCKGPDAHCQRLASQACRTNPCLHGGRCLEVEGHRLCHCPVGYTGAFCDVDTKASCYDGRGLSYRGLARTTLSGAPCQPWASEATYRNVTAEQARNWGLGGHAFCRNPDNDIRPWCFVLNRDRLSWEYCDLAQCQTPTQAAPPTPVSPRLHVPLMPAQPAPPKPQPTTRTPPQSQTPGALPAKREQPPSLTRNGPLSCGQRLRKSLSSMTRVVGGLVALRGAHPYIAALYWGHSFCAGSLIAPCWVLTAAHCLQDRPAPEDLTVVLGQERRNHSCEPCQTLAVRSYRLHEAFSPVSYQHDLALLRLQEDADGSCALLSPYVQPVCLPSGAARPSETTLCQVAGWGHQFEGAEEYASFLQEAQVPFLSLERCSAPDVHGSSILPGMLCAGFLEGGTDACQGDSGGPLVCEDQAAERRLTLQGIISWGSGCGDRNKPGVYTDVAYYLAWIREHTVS
Kind of experiment: Surface plasmon resonance (Biacore 4000) binding kinetics, hFXII.

Here are results for 3 molecules from patent publication US12068729B2, “Anti-factor XII/XIIa antibodies and uses thereof” (Regeneron Pharmaceuticals, Inc., priority 2018, dated 2024).

B1: mAb26049: fully human anti-FXII/FXIIa monoclonal antibody, HCVR/LCVR SEQ ID NOs: 34/42 (antibody, V domains shown)
VH: EVQLVESGGDLVQPGGSLRLSCAASGFTFNTYAMHWVRQAPGKGLEYISAIDTKGGSTYYADSVKGRFTISRDNSKNAQYLQMDSLRVEDMAVYYCARGFGLDVWGQGTTVTVSS
VL: DVVMTQSPLSLAVTLGQPASISCRSSQSLGYSDGNTYLNWFQQRPGQSPRRLIYKVSNRDSGVPDRFSGSGSGTDFTLKINRVETVDVGVYYCMQATHWPYTFGQGTKLEIK
As to B1, in experiment [1], the “Concentration required for ↑ lag time by 2×” value (from here on “Concentration required … by 2×”) stood at 200 nM, the “Concentration required for ↓ endogenous thrombin potential by ½” value is given as 250 nM and the “Concentration required for ↓ thrombin peak by ½” value was determined as 250 nM. In addition, in experiment [2], the “C2xt of Prothrombin Time (PT) - Extrinsic Pathway” value (“C2xt of Prothrombin Time (PT)” for short) is recorded as “— (no inhibitory effect on clotting time with a dose up to 4 uM)” and the “effect on plasma PT (in words)” value is “without increasing PT”. Also, in experiment [3], the “effect on plasma aPTT (in words)” value was “prolonged the aPTT”. Further, the “100 nM Ag Bound (RU)” value with human FXII (25° C.) was 134.6 RU. The “100 nM Ag Bound (RU)” value with human FXII (37° C.) worked out at 178.5 RU.

B2: mAb26036: fully human anti-FXII/FXIIa monoclonal antibody, HCVR/LCVR SEQ ID NOs: 2/10 (antibody, V domains shown)
VH: QVQLVQSGAEVKKPGASVTVSCKASGYTFTSYYLHWVRQAPGQGLEWMGIINPSGGSTSYAQKFQGRVTMTRDTSTSTVYMELSSLRSEDTAVYYCARGVTTVTTYYHYYNMDVWGQGTTVTVSS
VL: DIQMTQSPSSLSASVGDRVTITCRASQGISNYLAWFQQKPGKAPKSLIYAASSLQSGVPSKFSGSGSGTDFTLTISSLQPEDFATYYCQKYNTYPLTFGGGTKVEIK
For the molecule B2, in experiment [1], the “Concentration required … by 2×” value came out at 175 nM, the “Concentration required for ↓ endogenous thrombin potential by ½” value turned out to be 250 nM and the “Concentration required for ↓ thrombin peak by ½” value amounted to 250 nM. In experiment [2], the “C2xt of Prothrombin Time (PT)” value is listed as “— (no inhibitory effect on clotting time with a dose up to 4 uM)” and the “effect on plasma PT (in words)” value was “without increasing PT”. Further, the “effect on plasma aPTT (in words)” value in experiment [3] is on record as “prolonged the aPTT”. Further, the “100 nM Ag Bound (RU)” value with human FXII (25° C.) worked out at 146.2 RU. The “100 nM Ag Bound (RU)” value in the experiment with human FXII (37° C.) is on record as 272.3 RU.

B3: mAb26048: fully human anti-FXII/FXIIa monoclonal antibody, HCVR/LCVR SEQ ID NOs: 18/26 (antibody, V domains shown)
VH: EVQLVESGGGLVQPRGSLRLSCVASGFTFSDYGMSWVRQAPGKGLEWVSVIGGAGHGTYYADSVKGRFTISRDNSRNTLYLQMNSLRDEDTAVYYCAKKYYWNYVGGMDVWGRGTTVTVSS
VL: DIQMTQSPSSVSASVGDRVTITCRASQDINNWLAWYQQKPGKAPKLLISTASSLQSGVPSRFSGSGSGTDFTLTISSLQPEDFATYYCQQANSLPFTFGPGTKVDIK
On to B3, for which, in experiment [1], the “Concentration required … by 2×” value stood at 150 nM, the “Concentration required for ↓ endogenous thrombin potential by ½” value is reported as 250 nM and the “Concentration required for ↓ thrombin peak by ½” value was determined as 250 nM. In experiment [2], the “C2xt of Prothrombin Time (PT)” value was “— (no inhibitory effect on clotting time with a dose up to 4 uM)” and the “effect on plasma PT (in words)” value is recorded as “without increasing PT”. In addition, the “effect on plasma aPTT (in words)” value in experiment [3] was “prolonged the aPTT”. Also, in the experiment with human FXII (25° C.), the “100 nM Ag Bound (RU)” value is given as 327.5 RU. For the same molecule, in the experiment with human FXII (37° C.), the “100 nM Ag Bound (RU)” value is listed as 400.6 RU.
